Measured values reported in article PMC5610937 (Journal of molecular biology, 2017).

Molecular target: human ROR2 on the Retrogenix HEK293 cell microarray (Homo sapiens (Human)., UniProt Q01974)
Test: Retrogenix cell microarray

B1: XBR1-402 in chimeric rabbit/human IgG1 format (antibody, V domains shown)
VH: QEQQKESGGGLFKPTDTLTLTCTASGFDISSYYMSWVRQAPGNGLEWIGAIGISGNAYYASWAKSRSTITRNTNLNTVTLKMTSLTAADTATYFCARDHPTYGMDLWGPGTLVTVSS
VL: SYELTQLPSVSVSLGQTARITCEGNNIGSKAVHWYQQKPGLAPGLLIYDDDERPSGVPDRFSGSNSGDTATLTISGAQAGDEADYYCQVWDSSAYVFGGGTQLTVT
B1: no binding (tested: 2 μg/mL).
